Assay results: paper PMC9830665

Legend:
[1] = biological target: uridine-specific nidoviral endoribonuclease (NendoU) protein from SARS-CoV-2 (SARS-CoV-2); assay: SEC
[2] = biological target: uridine-specific nidoviral endoribonuclease (NendoU) protein from SARS-CoV-2 (SARS-CoV-2); assay: dynamic light scattering

For “uridine-specific nidoviral endoribonuclease (NendoU) protein from SARS-CoV-2 (enzyme)”, the stoichiometry N [1] was 6 and the stoichiometry N [2] was 6.
